Measured values as given in article PMC11161652, “ASXLs binding to the PHD2/3 fingers of MLL4 provides a mechanism for the recruitment of BAP1 to active enhancers” (Nature Communications, 2024).
Where two headings read alike, the source gives them in different places. Each block holds one molecule with its values, some of them ahead of it. Ends that are not written are not given here.

What was measured:
[1] = biological target: T1, MLL4PHD2/3 (Homo sapiens, UniProt O14686); test: NMR titration binding, WT MLL4PHD2/3; details: 0.1 mM protein; for binding in NMR titration (CSPs): 1H,15N HSQC, pH 6.8, 298 K, in words
T1 construct: MLL4 (aa 227-324); GST (N, cleaved yes); made in house; host or cells: E. coli BL21-CodonPlus
T1 sequence (O14686 227-324): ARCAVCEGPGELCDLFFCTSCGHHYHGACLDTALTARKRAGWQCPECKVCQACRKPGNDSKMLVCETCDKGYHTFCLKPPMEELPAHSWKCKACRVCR
Experimental: (§1) All constructs were expressed in BL21-CodonPlus competent cells.
(§2) For NMR titration experiments, ^1H,^15N HSQC spectra of 0.1 mM uniformly ^15N-labeled WT or mutated MLL4PHD2/3, MLL3PHD2/3 or MLL3PHD4 were recorded while WT or mutated ASXL2 (aa 650-670, 650-664, 656-670) and ASXL3 (aa 1047-1067) peptides (synthesized by SynPeptide) or MLL3PHD2/3 were added stepwise. All experiments were carried out in 20 mM Tris buffer (pH 6.8), 150 mM NaCl, and 3 mM DTT, containing 7% D2O. The dissociation constants (Kds) were determined by a nonlinear least-squares analysis in GraphPad Prism using the equation:1 △δ=△δmaxL+P+Kd−L+P+Kd^2−4PL/2P where [L] is concentration of the peptide, [P] is concentration of the protein, Δδ is the observed chemical shift change, and Δδmax is the normalized chemical shift change at saturation. Normalized chemical shift changes were calculated using the equation Δδ=△δH^2+△sn/5^2 (2), where Δδ is the change in chemical shift in parts per million (ppm).

[2] = biological target: T2, MLL3PHD2/3 (Homo sapiens, UniProt Q8NEZ4); test: NMR titration binding, WT MLL3PHD2/3; details: 0.1 mM protein
T2 construct: human MLL3 (aa 342-439); GST (N, cleaved yes); made in house; host or cells: E. coli BL21-CodonPlus
T2 sequence (Q8NEZ4 342-439): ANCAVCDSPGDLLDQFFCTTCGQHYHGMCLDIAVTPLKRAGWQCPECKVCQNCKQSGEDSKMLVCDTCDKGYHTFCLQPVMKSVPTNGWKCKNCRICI
Experimental: as §1, §2

[3] = system: GST-MLL3PHD2/3; test: GST pull-down, WT MLL3PHD2/3; assay type: binding, human; details: WT GST-MLL3PHD2/3; HEK293FT lysate, 3 h at 4 °C, western blot; n = 3
Experimental: (§3) Pull-down assays were performed by mixing resin-bound GST-MLL3PHD2/3 and GST-MLL4PHD2/3 (wild type and mutants) with lysates of HEK293FT expressing Myc-ASXL1, Myc-ASXL2 or Myc-ASXL2ΔMBH. Pellets of HEK293FT cells transfected with the appropriate pDEST expression construct (15 μg/dish using polyethylenimine (PEI)) were lysed with 10 times their volume of lysis buffer (50 mM Tris pH 7.3, 100 mM NaCl, 1 mM DTT, 1 mM EDTA, 1 mM PMSF, 0.1% Tween20, 1/100 anti-protease (Sigma)) and sonicated with a probe sonicator (Branson digital sonifier 450) calibrated at 40% amplitude for 3–4 rounds during 40–60 s. Lysates were then centrifuged in a Sorvall Lynx 6000 (rotor: F21-8x50Y) at 15,000 RPM during 20 min. Approximatively 9 μg of purified GST-fusion proteins bound to GSH resin (Sigma, G4510) were used for each condition. Final volume of GSH resin was adjusted to 30 μl per condition with empty GSH beads and incubated with 1.5 mL of HEK293FT lysate expressing Myc-ASXL1, Myc-ASXL2 or Myc-ASXL2ΔMBH for 3 h at 4 °C on a rotative system. A fraction of the reaction mixture (80 μL) was collected as the input. After the incubation, beads were washed 5 times and mixed with 100 μL of Laemmli buffer. Samples were loaded on 8% or 15% SDS-acrylamide gels and processed for western blotting.

[4] = system: GST-MLL4PHD2/3; test: GST pull-down, WT MLL4PHD2/3; assay type: binding, human; details: WT GST-MLL4PHD2/3; HEK293FT lysate, 3 h at 4 °C, western blot; n = 3
Experimental: as §3

[5] = system: MLL4PHD2/3 or MLL3PHD2/3 mutants; test: GST pull-down, mutated MLL3/4PHD2/3; assay type: binding, human; details: mutated GST-MLL3/4PHD2/3; HEK293FT lysate, 3 h at 4 °C, western blot; n = 3
Experimental: as §3

[6] = biological target: T3, PHD2 and PHD3 fingers of human MLL3 (aa 342-439) (human, UniProt Q8NEZ4 342-439); test: other fluorescence titration; tryptophan fluorescence, 25 °C; 1.0 µM MLL4 PHD2/3 or MLL3 PHD2/3 with increasing peptide; excitation 295 nm; 20 mM Tris pH 7.2, 150 mM NaCl, 1 mM TCEP, 0.02% Tween20; average of three measurements; details: both partners purified
T3 construct: PHD2 and PHD3 fingers of human MLL3 (KMT2C), aa 342-439; 15N-labelled for NMR titrations; also used unlabelled as the titrant against MLL3 PHD4; also called MLL3_(PHD2/3); MLL3 PHD2/3; source: E. coli BL21-CodonPlus, purified (glutathione agarose, PreScission cleavage; unlabeled proteins also SEC)
T3 sequence (looked up): T2 sequence (Q8NEZ4 342-439)

[7] = biological target: T4, PHD2 and PHD3 fingers of human MLL4 (aa 227-324) (human, UniProt O14686 227-324); test: as above; details: both partners purified
T4 construct: PHD2 and PHD3 fingers of human MLL4 (KMT2D), aa 227-324; also called MLL4_(PHD2/3); MLL4 PHD2/3; source: E. coli BL21-CodonPlus, purified (glutathione agarose, PreScission cleavage; unlabeled proteins also SEC)
T4 sequence (looked up): T1 sequence (O14686 227-324)

[8] = biological target: T5, PHD2 and PHD3 fingers of human MLL3 (aa 342-439) (human, UniProt Q8NEZ4 342-439)
T5 chain: T2 sequence (Q8NEZ4 342-439)

[9] = biological target: T4, PHD2 and PHD3 fingers of human MLL4 (aa …); test: not stated; fluorescence spectroscopy or NMR: the legends of Fig. 3c and Fig. 4b say that values marked (a) are from NMR and the others from fluorescence; the text does not tell which for these pairs; details: both partners purified
[10] = NMR, 1H,15N HSQC titration, 20 mM Tris pH 6.8, 150 mM NaCl, 298 K

Molecule: ASXL1 peptide: ASXL1 peptide; the ASXL1 region encompassing residues 607-627 (GWTGARTLADIKARALQVRGA)
binding in NMR titration (CSPs) [1]: large CSPs, confirming formation of the complex

Molecule: ASXL2 K661E: K661E mutated ASXL2 peptide (residues 650-670) (NRTGARTLADIEAKAQLVKAQ)
binding in NMR titration (CSPs) [1]: abrogated binding
Kd [1, 10]: no binding
binding in NMR titration (CSPs) ([2]; 1H,15N HSQC, pH 6.8, 298 K, in words): did not form the complex
Kd [2, 10]: no binding

Molecule: RNTGARTLADIKARAQQARAQ [ASXL3 1047-1067]
binding in NMR titration (CSPs) [1]: large CSPs, confirming formation of the complex

Molecule: full-length ASXL1: full-length ASXL1 expressed in HEK293FT cells
association in pull-down [3]: detected
association in pull-down [4]: detected
association in pull-down [5]: not with the MLL4PHD2/3 or MLL3PHD2/3 mutants

B4: ASXL2 peptide (aa 650-670) I660E (peptide, UniProt Q76L83 650-670, looked up)
peptide: NRTGARTLADEKAKAQLVKAQ
notes: ASXL2, residues 650-670; also called I660E mutant of ASXL2; source: synthetic peptide (SynPeptide)
Kd [8]: 84 µM
Kd [9]: 1.1 mM
binding result [6]: binds

The remaining lines, values ahead:

Kd [6]: 133 µM
Kd [7]: 700 µM
B1: ASXL2 peptide, residues 656-670 (peptide, UniProt Q76L83 656-670, looked up)
peptide: TLADIKAKAQLVKAQ
notes: ASXL2, residues 656-670; also called ASXL2_(656-670); ASXL2 (aa 656-670); source: synthetic peptide (SynPeptide)

Kd [6]: 0.9 µM
Kd [7]: 1.4 µM
B2: ASXL3 peptide (aa 1047-1067) (peptide, UniProt Q9C0F0 1047-1067, looked up)
peptide: RNTGARTLADIKARAQQARAQ
notes: ASXL3, residues 1047-1067; also called ASXL3 (aa 1047-1067); source: synthetic peptide (SynPeptide)

Kd [6]: 28 µM
Kd [7]: 98 µM
B3: ASXL2 peptide, residues 650-664 (peptide, UniProt Q76L83 650-664, looked up)
peptide: NRTGARTLADIKAKA
notes: ASXL2, residues 650-664; also called ASXL2_(650-664); ASXL2 (aa 650-664); source: synthetic peptide (SynPeptide)
